# Measurements: the DeepSol protein solubility set
# Test: soluble on expression in E. coli; label from the status in PepcDB or PDB records
row,Sequence,soluble on expression in E. coli
1,MTALPLSAVTVVSVCYNSDRLIRDLVTAIPDETPIILVDNGHTNTFADLPPHRNVIIVKLDHNLGFGRGCNAGADVAQTPWILFLNPDARLNPGAIEGLLQAAAQYPSAIAFNPRIYNEDGSPYFKRRSWLLPRQHYMKKGWPSADAVVPVLSGAALFVSKKSFDYIGGFDPSIFMYHEDDDLSLRLSALGELRFVRNSTVVHFAGYSSGRSPEIARFKAYHMAQSKIYAGQKHHRPFAKTSTLLQGCLLLLSPHVFFSARRRAKALGFLHGALAKIWSELLNAASTSSQKKT,soluble
2,MTSLCNKELSDTLVGLYDDYKRGFDIGEELKLCVDLALTLELELSIHRLSETDTVLKKEIIQTLQNRRNSHSNEDETIDETGTIIQMDFKERN,soluble
3,MGSDKIHHHHHHMKKLVVRADDIGYSEGVTLGIISSYKNGIVTSAGIMVNMPFSRQAIEMVKNDDVCFGLHVNLVIGEPCCKEHIKIKNLLDEGGKFVSSKIRRTQLLTGKEVFNYEEVYEEVCAQIETYKLYMSKLPEYIDIHGIEEDVSISAMCDAAKEYGIPSCPYYLDSCISMPSKYPQNDFYKLNKSFVKLFEEKYINLDKDITLMVTHPGFIDYSLIKSSSLIQERVYEHAMLCDKEVKMWLKRNNIELVDFKDIFKSNNYI,not soluble
4,MGGMLRRLEVQNLAVIREAALDFAPGLNVLTGETGAGKSLLVDALALLLGGRAEGLIGPYGESLLVTAFFEGPPGEAVLSRRVGARSTPRVDGEVVTLKELQAEAERRLSLHAQHTALALLSPRRQREALDALLPEGLLAAYQEAYARREALLKEKAALEESLKARAEREDLLRYQIREIEEARVRPGEEEELLALAERLRHLETIRERLARALALLTEREAQDLLALAAKEVRAAARHDPALEALAEELSGAAEAVRAVARELEDHLEGLDLDPEELDRVEARLSLLERLKRKYGPTLADVLAHAQKAREELARMEGGEERLSEVERLLKALHEEVEARGQALRRAREEAARRLTEGMVRELPALGLAGARFAVVLEPLPEPGPQGLEAVAFRVAPNPNLPPAPLEALSGGELSRVALALALLTGTEAPTVVFDEVDAGVGGETAWRLAERLKRLAERRQVLVVTHLPQVAAVAQRHFRVTKTPEGVRVEPLAGEARVKEIARLLSGAYTQAALAHARELLEAQGAL,soluble
5,MGSDKIHHHHHHMFTRRFIPVVQSTKQNIGKYVRKDARFTLLTYNMLSPSYMWPQVYTYVAEPYKNWSYRHRLLEKELLNTFKADIMCLQEMTARDYEDYWHDSIGVDVNYGSKFISKTPPKYWKKPVKDMDGVSIFYNLAKFDFISSSGIYLNQLLNVFNQRELKYLYNKKVTLTDGASNVIGEDSLLDVLKGKNQVCLFVSLRHKETGTIFVVLNTHLYWKYDEVKLTQCMIIMRELSKIIKQLLPGDVKGQERVKILFTGDLNSTRDSLVVNFLQGQIVSHGDLNLINPMRPYLDRCVYDDIPKDYFVHTCYSGKLKGIFDYVWYHDSDFLLTKILTGNEVSDELLASNQLGLPNENHPSDHIPLLTEFKIL,not soluble
6,MGSDKIHHHHHHMKLSRLKRKHKRVISVGKIAEQFWCEMKVELKLLYDIKPSNALVRKGKRIHDEISGKASLPRPKNFIDWLGGQIYFTNLSIESFLKSGLGREVFLVTKVDGDGWRWYLSGSIDEIRKKGGRTQVVERKTRLREEVPENESHKVQGLLYHLMLDEARRQKVSRNVKRAYGVVERAAISKEFSQAVGMTERNVKAMLRTLDSKLPMIPELDEEVVVIYESQKTGERIGEVRFKAQREEIERILQFSREYWAGEREALKTRENWKCRFCEVRKYCL,not soluble
7,MTAAIAAPAYDAIVIGSGIGGLVTATQLAAKGAKVLVLERYLIPGGSAGWFEREGYRFDFGASIIFGFGDPGTTNLLTPPLADVGQALETIPDPVQIHYHLPNQLDLKVHRDYEAFLQELIAQFPQEAEGIRRFYDECWQVFNCLNAMPLLSLEEPKYLFNVFLQHPLACLGLVKYLPQNVGDIARRYIRNPDLLKFIDMECYCWSVVPATMTPMINAGMVFSDRHYGGINYPKGGVGRIAEKLVAGLEAKGSSIRYKARVTRILTEKGRAIGVELADGEKLYAKRIISNATRWNTFG,soluble
8,MEAYNVQNLYQCLNCDDYHLCNGSLNCDPLVDREGIVCTVTGKYIQCNVRELEHHHHHH,soluble
9,MKKVLLTAINSQFIHSNLAVRYLKAYAKELDLQIKIREFSINDRLERIFEEIMYEKPDIVGFSCYIWNGEYVDKLSNLIKRVDENIQIFYGGPEVSFDCREVLLNSSADFLIEGEGEESFKEFLKWKLENGFDRKDLKIKGVYSKCQNQILYGGQREALDMNLLEFPYNEEDDLSNKIIYYEASRGCPFNCKYCLSSTIRGVRFLNPDRVKRELKFLADKKVKIVKFVDRTFNANPKFAMEIWKYLMELDTETVFHFEITADIVTEDEIELLKNAPKGRFQFEVGVQSTNNEVLKNVNRYIEFKDIKEIVMKLEEGKNINQHLDLIVGLPGEDFNSFKNSFNDVYSIGPEKLQIGFLKLLKGSSMREEAEKWGMSYSPYHPYEILRTKDISFEEISILKRVDSVVDKYYNTGKFDHIVEFLISDFETPFDFYYKLSEYFYHKGYFNRSISASEYYKVFLDFNKEILKKENDVLEEIVKFEYLKFNKKSWLPPFLTRLNVKEEEQAIKEKLKEENKFDKKLHLEKFSIDIDRYITKKEIVYKEMYHIFN,not soluble
10,MAHHHHHHMATPRHGDLDSICSLSSSENSPRGGGQSSERLIDLLTRPCAQGGYGGRLNYTGFATLAASLGWNQEDMDDCWYDIVMGEPCAEAVDMKRVAECVCSYCLASPLPILEHSTLAKSSAAKPATPPRLPHASRERSTTVLLSPPTPRFRRAESVASTLPKTGDKQRVTTATASPSQACAHRRCTAPNVFPRYAVETVSSEQKKASLSPGRGSHRPHNRRTTAKSSRQTSPAPTLSQTSGPSGCSVFSRLYEKGMEQHRKRIAVKPVDSDAAECTFQPHITPYTPKAADTASVHYNKPTESYFAKLTAPGTPPDAICASPETPRVTYHPAPGPSSDVPAGYVEGVARLRSYIASRYAHATFASSLRGSSSADVAHLVEAPILRLPVTVRGVTDAVDVRLASPDTRASLGRECSVGPRRPCFRQRCEARHVSFPSPSRVRFQS,soluble
11,MSNTDNSDKNTKPTGYRPPQTDFNTEFGNNLDYPRLGSVSFRRGTLTDNQESLWDANWPILGKDLTDAEDQRIDVAEWFGRCGHKTILEIGSGTGTSTAAMAPLEADTNIIAVELYKPGLAKLLGAVVRGDISNVRMIRGDGVEVLTRMLPEESLDGVRIYFPDPWPKARHHKRRIIQSGVLNLIASRLKPGGVLHVATDHADYAEWITELVNVEPQLEFMGWPWDECPQLTDRQVITKFEGKGLDKDHTITEFLWRRK,not soluble
12,MGSDKIHHHHHHMTKHASARKFPPRARFLPKCEPSLYHERRSVSARASGPTTVIDPKTVTDVTNDTLSHYALPAYPAEQFCVDIGANAGDPIGILDDLVMDDIYELTSDARLRRLAFGVSTEGTITLHSESEMGQDGARLHLDCAVTLMPDLGSAIEALIAVEVDNEGLIARLYLIPQAPLAQGTGYRLVRASREPVWTRLAQLSCVAFSRGTHITMGTGEQRPIEMLRAGDRVLTRNSGARRITWVGHTTVRAVGEMAPILIRQGALNNARDLLVSPDHRLMIYQRSDALGAGRNELMIRARDLVNGDSVVVQDGGFVDYYQILFDRHHIIYAEGIAAESMLVDPVTRPALPEEVQQRLTQPRRHGTRGDHGLEIRRPMLSHPDTVDLLKRASLR,not soluble
13,MGSDKIHHHHHHVSDSPLPDSETSAAAEFKVDNCALVLEGGGLRAIYTAGVLDAFLAAGIHFQYLVGVSAGAIYPASYLSRQMGRNLTIQQNFLADKRYMGLKHLLRTGNYVNTDFTYRRMAHELVPYDFDAFASSEAEFKVGAFNCLTGETDFFGMADFADHDTFLEVLIASSSLPFISKPTFIDGTPYLDGGIGAPIPLAQAREDGYKRQVVILTQEQDYRKSAFKAKWLAKRLYRRYPKVASALLARHQVYNQALDDLTKAQADGSALVLQPATPMGLSRLERDVSKVEAVYRRGLSEGEAFIPSLLAFIENC,not soluble
14,KGTYLSEYANFAAALTEGKILLLADLRGFGETTDPAFYTDAKYWNREYRNAMVSMHIGRPIMGQRVVDILTLLDFCSEHEFLKGHPVKVFANGIYGPVAIHAAYLDERINSVEIKHSVKTWKEYIERPMQWDMYSNVLYGALKYYDLPDLIRLSNCPIRFAD,not soluble
15,GMDQESNATSQDILKQHAAHYESDMGGLPEALVQLAEYAPETFDAYSRMRTTMLKSEADGAKLPLKYKHLILVVLDAIRDEPIGIVNHTRAAMNAGLSVDELIEGILLGIIVYGMPAWGKTGRKAVTFAVEFEKELAGKRT,soluble
16,SNAMQVITSVKEAKQIVKDWKSHQLSIGYVPTMGFLHDGHLSLVKHAKTQDKVIVSIFVNPMQFGPNEDFSSYPRDLERDIKMCQDNGVDMVFIPDATQMYLKNFSTYVDMNTITDKLCGAKRPGHFRGVCTVLTKFFNILNPDIVYMGQKDAQQCVVVRHMVDDLNFDLKIQICPIIREEDGLAKSSRNVYLSKEERKASLAISQSIFLAEKLVREGEKNTSKIIQAMKDILEKEKLIKIDYIELVDFNTMENIENITDNVLGAVAAFVGKTRLIDNFLVQGLK,soluble
17,MDMLNTLRDTLSSVQAELSTGVEKLRMNVSANIVAQQKVSTESVNEILNTSAGNELLQNFQNLITEVEENGAEGGRLANLCSTRMGRCQQMCKEKADAVMEIDEFLRNSVEFDKKIREINAQISKLTRFCNQTEQAMTYLEALCEVAHTEGEVDLIRQQAKSAATIVQIECESPSVLTSALRSRPEDAVKAQQEEVMLEEFLSSKNMQLP,not soluble
18,MNDTPDDTFVSGYLLYLLAASSEEASAQFHDHIRAQGLRVPEWRVLACLVDNDAMMITRLAKLSLMEQSRMTRIVDQMDARGLVTRVADAKDKRRVRVRLTDDGRALAESLVASARAHETRLLSALADTDAARIKGVLRTLLDVLDRPRESR,soluble
19,MGSDKIHHHHHHMSNSSIKSKTALLRNGETQKGNGYPEANDYSARILETMQTGVVFFNTEQIISGINNLACEDLQIPRDPSGHKITDIISIIHQEKDIFPELIARLKSSETDMEKLPIDTLIRSLETKVQFFASGCIMQLETGRYLLAFRNTMDEVTHEHLLSMILARTKIFPWFFDLKRNKMLIDAHWFSYLGIPAGDCEITIEKFFSRVHPNERDMLADALQKQLSEKEIPDSFSYRLQRGDGSWEWFSEQSMYLSKTNDGSPYRIVGVCHSIQEHKNTEDKLRAARNKAQESDRLKSAFLANMSHEIRTPLNAIVGFSNLIAGGIVDLDTEEARDYSALISKNCNYLLTLVSDVLDLSCIESDTMTFKFTVYPLTRLLTEIYQKYENRIPQEVQFNLLLPTDNVEIETDAVRLRQVIEHLLDNAAKFTVKGHIDIGYALSDHGEKIYVFVADTGCGIPSDQYKKVFERFYKINSFVQGAGLGLSVCKTIVEGLGGTINVYSQLKEGSRFSVILPLNRLHK,not soluble
20,GPGSMATGTSPPSLVTVPLLRAALLLRWRLLSLQFDGDSNMCVLAEDAADGLPRGTRLEMYGSNVQLVRQLSGAGEALLQPSVIGEVTATLEGALTDDTTERRGRQIVAVLSPPHLSSSLGGPEFKGNEDVEVIAQWTLSRKRVENVQRVTDTTKRDGVKNEEPPPLMENGIVFPSPRFAGLRVLRAARHSFALLLENELRERTGESEVGKVGPLAVLDVSELDCTFSRVAVQMAVERGLVLEQHMHVNFVPLTPAATATADETVRSLLRLVAHPTRGAHLDPLRPLQARCFKLGCCTFCSKGRGSAANEGSKKDEASLVSRLAGVISKIHSNGTLLVNLVGDGINHEELRQGAEMHLVEALLRADRCGVVIDEVLPAADTRGTAISFVVSLC,not soluble
21,MGHHHHHHSHGTRSKLSRHGSGADSDYENTQSGDPLLGLEGKRFLELGKEEDFHPELESLDGDLDPGLPSTEDVILKTEQVTKNIQELLRAAQEFKHDSFVPCSEKIHLAVTEMASLFPKRPALEPVRSSLRLLNASAYRLQSECRKTVPPEPGAPVDFQLLTQQVIQCAYDIAKAAKQLVTITTREKKQ,soluble
